Measured values from US20150203577A1 (Chugai, published 2015).
Substitutions are numbered along the chain they refer to.

T1: mouse FcγRIII (mouse, UniProt P08508 31-215)
T1 construct: also called mFcγRIII; mFcgRIII
T1 chain: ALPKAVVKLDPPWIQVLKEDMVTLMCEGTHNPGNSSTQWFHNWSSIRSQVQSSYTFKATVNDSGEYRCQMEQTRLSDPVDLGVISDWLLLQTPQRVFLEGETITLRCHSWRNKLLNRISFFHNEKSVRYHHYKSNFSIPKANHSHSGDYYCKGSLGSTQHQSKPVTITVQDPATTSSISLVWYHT

T2: mouse FcγRII (mouse, UniProt P08101 30-210)
T2 construct: also called mFcγRII; mFcgRII
T2 sequence: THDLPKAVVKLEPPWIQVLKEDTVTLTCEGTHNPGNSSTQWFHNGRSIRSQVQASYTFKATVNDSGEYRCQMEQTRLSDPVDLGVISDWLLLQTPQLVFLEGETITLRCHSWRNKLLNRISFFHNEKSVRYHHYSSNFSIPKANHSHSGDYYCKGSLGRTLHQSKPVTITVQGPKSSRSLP

B1: H237-MB753/MRAL-k0 (antibody, mouse IgG1, kappa)
heavy: QVQLQESGPGLVKPSETLSLTCAVSGHSISHDHAWSWVRQPPGEGLEWIGFISYSGITNYNPSLQGRVTISRDNSKNTLYLQMNSLRAEDTAVYYCARSLARTTAMDYWGEGTLVTVSSAKTTPPSVYPLAPGSAAQTNSMVTLGCLVKGYFPEPVTVTWNSGSLSSGVHTFPAVLQSDLYTLSSSVTVPSSTWPSETVTCNVAHPASSTKVDKKIVPRDCGCKPCICEPNEVELVFIFPPKPKDVLTITLTPKVTCVVVDISKDDPEVQFSWFVDDVEVHTAQTQPREEQFNMTFRSVSELPIMHQDWLNGKEFKCRVNSAAFPAPIEKTISKTKGRPKAPQVYTIPPPKEQMAKDKVSLTCMITDFFPEDITVEWQWNGQPAENYKNTQPIMDTDGSYFVYSKLNVQKSNWEAGNTFTCSVLHEGLHNHHTEKSLSHSPGK
light: not shown
notes: mouse IgG1 CH variant; copies: 2 + 2
B2: H237-MB757/MRAL-k0 (antibody, mouse IgG1, kappa)
heavy: B1 heavy with N320D
light: not shown
notes: as for B1
B3: H237-MB778/MRAL-k0 (antibody, mouse IgG1, kappa)
heavy: B1 heavy with M294S, S333K
light: not shown
notes: as for B1
B4: H237-MB764/MRAL-k0 (antibody, mouse IgG1, kappa)
heavy: B1 heavy with F292T, M294S
light: not shown
notes: as for B1
B5: H237-MB762/MRAL-k0 (antibody, mouse IgG1, kappa)
heavy: B1 heavy with F292E, M294S
light: not shown
notes: as for B1
B6: H237-MB768/MRAL-k0 (antibody, mouse IgG1, kappa)
heavy: B1 heavy with M294S, A326Q
light: not shown
notes: as for B1
B7: H237-MB769/MRAL-k0 (antibody, mouse IgG1, kappa)
heavy: B1 heavy with M294S, P327D
light: not shown
notes: as for B1
B8: H237-MB767/MRAL-k0 (antibody, mouse IgG1, kappa)
heavy: B1 heavy with M294S, A326G
light: not shown
notes: as for B1
B9: H237-MB772/MRAL-k0 (antibody, mouse IgG1, kappa)
heavy: B1 heavy with M294S, E329N
light: not shown
notes: as for B1
B10: H237-MB765/MRAL-k0 (antibody, mouse IgG1, kappa)
heavy: B1 heavy with M294S, N320L
light: not shown
notes: as for B1
B11: H237-MB758/MRAL-k0 (antibody, mouse IgG1, kappa)
heavy: B1 heavy with K330R
light: not shown
notes: as for B1
B12: H237-MB763/MRAL-k0 (antibody, mouse IgG1, kappa)
heavy: B1 heavy with F292N, M294S
light: not shown
notes: as for B1
B13: H237-MB755/MRAL-k0 (antibody, mouse IgG1, kappa)
heavy: B1 heavy with M294L, N320D
light: not shown
notes: as for B1

Target: T1, mouse FcγRIII
Assay: SPR (Biacore), antibody captured on Protein L, mFcγR as analyte
Method: (§1) Each altered antibody was analyzed for its interaction with each Fcγ receptor prepared above using Biacore T100 (GE Healthcare Japan Corp.), Biacore T200 (GE Healthcare Japan Corp.), Biacore A100, or Biacore 4000. The running buffer used was HBS-EP+ (GE Healthcare Japan Corp.). The assay temperature was set to 25° C. The sensor chips used were chips prepared by immobilizing Protein L (ACTIGEN or BioVision) onto Series S Sensor Chip CM5 (GE Healthcare Japan Corp.) or Series S Sensor Chip CM4 (GE Healthcare Japan Corp.) by the amine coupling method.
(§2) In order to calculate the KD value of each altered antibody for FcγR, kinetic analysis was conducted according to the following method: first, the antibody of interest was captured onto any of these chips and allowed to interact with mFcγR diluted with a running buffer. For the obtained sensorgram, the assay results were globally fit into the 1:1 Langmuir binding model using Biacore Evaluation Software to calculate an association rate constant ka (L/mol/s) and a dissociation rate constant kd (1/s). From these values, the dissociation constant KD (mol/L) was calculated.

Row | Kd | relative mFcγRIII-binding activity (mIgG1 = 1) | Binder
1 | 4.26 µM | 0.09 fold | B1
2 | 3.23 µM | 0.11 fold | B2
3 | 2.54 µM | 0.16 fold | B3
4 | 5.15 µM | 0.08 fold | B4
5 | 3.22 µM | 0.12 fold | B5
6 | 2.03 µM | 0.2 fold | B6
7 | 4.38 µM | 0.09 fold | B7
8 | 8.79 µM | 0.04 fold | B8
9 | 3.89 µM | 0.1 fold | B9
10 | 2.56 µM | 0.15 fold | B10
11 | 2.11 µM | 0.17 fold | B11
12 | 3.97 µM | 0.1 fold | B12
13 | 2.5 µM | 0.15 fold | B13

Target: T2, mouse FcγRII
Assay: as above
Method: as §1, §2

Row | Kd | relative mFcγRII-binding activity (mIgG1 = 1) | Binder
14 | 0.0368 µM | 5 fold | B1
15 | 0.0278 µM | 6.63 fold | B2
16 | 0.0342 µM | 7.21 fold | B3
17 | 0.0849 µM | 2.9 fold | B4
18 | 0.0481 µM | 5.12 fold | B5
19 | 0.0389 µM | 6.34 fold | B6
20 | 0.0632 µM | 3.9 fold | B7
21 | 0.117 µM | 2.1 fold | B8
22 | 0.0605 µM | 4.07 fold | B9
23 | 0.0396 µM | 6.23 fold | B10
24 | 0.0215 µM | 8.57 fold | B11
25 | 0.0619 µM | 3.98 fold | B12
26 | 0.0278 µM | 6.62 fold | B13
